Measurements from paper PMC2660596.

Target: Bacillus thuringiensis Cry11Ba toxin (Bacillus thuringiensis) (UniProt Q45730)
Assay: ELISA

“APN2t, truncated 70-kDa AgAPN2 peptide (residues 228 to 843) (domain or fragment)” was tested, and the Kd was 6.4 nM.
